Our source for the EC50 values is patent US20230051715A1 (MABWELL THERAPEUTICS, published 2023).

Assay [1] addresses T1, human C1s mutant M13 (A292D) (human, UniProt P09871 16-688).
T1 construct: The entry is the mutant itself
T1 sequence: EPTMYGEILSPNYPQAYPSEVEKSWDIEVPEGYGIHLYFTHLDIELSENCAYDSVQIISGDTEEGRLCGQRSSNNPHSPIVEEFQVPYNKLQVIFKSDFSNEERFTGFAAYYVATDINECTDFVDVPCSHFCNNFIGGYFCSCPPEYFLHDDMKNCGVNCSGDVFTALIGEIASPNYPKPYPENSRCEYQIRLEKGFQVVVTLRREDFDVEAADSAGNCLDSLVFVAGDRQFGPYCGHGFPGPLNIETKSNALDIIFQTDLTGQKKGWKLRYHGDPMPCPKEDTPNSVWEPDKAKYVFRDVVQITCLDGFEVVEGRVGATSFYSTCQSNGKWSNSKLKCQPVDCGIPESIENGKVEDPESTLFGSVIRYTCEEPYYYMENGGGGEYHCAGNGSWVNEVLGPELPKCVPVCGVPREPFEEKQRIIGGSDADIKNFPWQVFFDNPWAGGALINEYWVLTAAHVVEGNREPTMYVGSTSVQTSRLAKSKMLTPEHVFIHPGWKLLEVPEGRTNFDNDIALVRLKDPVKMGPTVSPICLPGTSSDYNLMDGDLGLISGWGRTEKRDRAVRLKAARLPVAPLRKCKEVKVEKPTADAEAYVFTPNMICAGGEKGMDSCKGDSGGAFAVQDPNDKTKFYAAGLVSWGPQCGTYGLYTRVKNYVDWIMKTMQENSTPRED
Put plainly: ELISA, plate coated with human C1s mutant M13: A292D, OD450nm. The procedure:
(§1) ELISA was carried out by first coating 96-well plates with 200 ng/well of full-length or truncated C1s proteins overnight. The next morning, plates were blocked with SuperBlock T20 blocking buffer (Thermo Scientific 37536) for 1 h with gentle shaking. Then, various concentrations of anti-C1s antibodies diluted in SuperBlock T20 blocking buffer were added to the plates and incubated for 1 h with gentle shaking. Mouse IgG (Sigma-Aldrich 15381) and human IgG1 (BioXCell BP0297) were used as negative controls. The plates were washed before incubating with HRP conjugated secondary antibodies diluted in SuperBlock T20 blocking buffer (goat anti-mouse IgG (H+L) cross-adsorbed secondary antibody HRP (Invitrogen G-21040) or goat anti-human IgG antibody, HRP conjugate (Millipore AP309P)) for 1 h with gentle shaking. At last, the plates were washed and color developed with ELISA liquid HRP substrate (Sigma-Aldrich), followed by stopping the reaction with addition of 1M H₂SO₄ in the same volume as the ELISA liquid substrate. Bound antibody was measured by absorbance at OD₄₅₀ₙₘ.
(§2) Binding of anti-C1s antibodies to mutants M1-M20 of human C1s was measured by ELISA as described in Example 4, and results are shown in FIGS. 6B-6U. All anti-C1s humanized variants including hz2-7(H1L2), hz2-8(H1L2 G80A) and hz2-8(H1L2 G80A/T82A) maintained strong binding properties to the majority (16 out of 20) of C1s mutants including M1 (FIG. 6B), M2 (FIG. 6C), M3 (FIG. 6D). M4 (FIG. 6E), M7 (FIG. 6H), M8 (FIG. 6I), M10 (FIG. 6K), M11 (FIG. 6L), M12 (FIG. 6M), M13 (FIG. 6N), M15 (FIG. 6P), M16 (FIG. 6Q), M17 (FIG. 6R), M18 (FIG. 6S), M19 (FIG. 6T) and M20 (FIG. 6U).
Background: An ELISA detects its analyte on a solid surface through an enzyme-linked reagent.

Assay [2] addresses T2, human C1s mutant M10 (D283I & P285A) (human, UniProt P09871 16-688).
T2 construct: The entry is the mutant itself
T2 sequence: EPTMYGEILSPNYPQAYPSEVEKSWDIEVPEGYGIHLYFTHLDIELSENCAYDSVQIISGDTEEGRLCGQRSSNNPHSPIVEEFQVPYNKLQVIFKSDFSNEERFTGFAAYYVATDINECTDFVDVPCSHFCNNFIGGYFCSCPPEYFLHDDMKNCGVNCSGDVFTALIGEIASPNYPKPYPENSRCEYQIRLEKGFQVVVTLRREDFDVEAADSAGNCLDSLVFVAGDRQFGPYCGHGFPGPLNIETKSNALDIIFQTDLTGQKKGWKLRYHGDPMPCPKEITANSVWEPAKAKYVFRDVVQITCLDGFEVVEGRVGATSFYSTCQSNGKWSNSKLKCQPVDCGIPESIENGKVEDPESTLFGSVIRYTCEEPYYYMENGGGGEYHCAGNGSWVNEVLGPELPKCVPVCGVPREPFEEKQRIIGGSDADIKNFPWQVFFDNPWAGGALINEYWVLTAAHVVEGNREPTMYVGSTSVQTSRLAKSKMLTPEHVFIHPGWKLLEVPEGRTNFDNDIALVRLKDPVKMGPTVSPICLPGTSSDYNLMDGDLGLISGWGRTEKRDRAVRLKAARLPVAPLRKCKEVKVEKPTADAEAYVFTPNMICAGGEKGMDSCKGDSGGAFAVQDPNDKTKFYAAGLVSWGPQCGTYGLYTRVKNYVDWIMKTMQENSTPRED
Put plainly: ELISA, plate coated with human C1s mutant M10: D283I, P285A, OD450nm. The procedure:
as §1, §2

Assay [3] deals with T3, human C1s mutant M12 (G381E & G382E) (human, UniProt P09871 16-688).
T3 construct: The entry is the mutant itself
T3 sequence: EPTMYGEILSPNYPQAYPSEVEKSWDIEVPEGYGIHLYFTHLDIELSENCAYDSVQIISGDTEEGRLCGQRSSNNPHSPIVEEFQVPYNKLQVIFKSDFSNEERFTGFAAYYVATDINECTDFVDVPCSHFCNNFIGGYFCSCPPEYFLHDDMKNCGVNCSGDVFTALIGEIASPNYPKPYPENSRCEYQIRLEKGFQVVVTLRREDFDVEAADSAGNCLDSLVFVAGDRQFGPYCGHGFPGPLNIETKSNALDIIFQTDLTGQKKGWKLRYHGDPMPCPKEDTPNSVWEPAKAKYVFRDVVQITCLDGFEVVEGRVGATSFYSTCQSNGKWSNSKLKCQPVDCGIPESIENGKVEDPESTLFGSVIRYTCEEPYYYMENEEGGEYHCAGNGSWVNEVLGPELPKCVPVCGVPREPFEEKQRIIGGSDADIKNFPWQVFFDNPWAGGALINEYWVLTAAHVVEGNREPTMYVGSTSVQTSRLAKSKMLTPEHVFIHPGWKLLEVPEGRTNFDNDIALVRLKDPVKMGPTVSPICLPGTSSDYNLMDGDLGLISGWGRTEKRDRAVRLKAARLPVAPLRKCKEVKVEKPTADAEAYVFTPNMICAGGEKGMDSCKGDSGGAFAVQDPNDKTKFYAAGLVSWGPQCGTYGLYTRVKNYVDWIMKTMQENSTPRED
Put plainly: ELISA, plate coated with human C1s mutant M12: G381E, G382E, OD450nm. The procedure:
as §1, §2

B1: Anti-C1s antibody hz2-7(H1L2) (antibody, V domains shown)
VH: EVQLLESGGGLVQPGGSLRLSCAASGFTFSNYFMNWVRQAPGKGLEWVSEIRLKFTNYATHYADSVKGRFTISRDDSKSTLYLQMNSLRAEDTAVYYCTRDYGSRNGYFDYWGQGTLVTVSS
VL: DIVMTQTPLSLPVTPGEPASISCRSSKSLLHSNGNTFLYWFLQKPGQSPQLLIYRMSNLASGVPDRFSGSGSGTDFTLKISRVEAEDVGVYYCMQHLEYPYTFGGGTKLEIKR
notes: Humanized, human IgG1 / kappa; also called hz2-7(1L2)
With B1, the EC50 (usually the midpoint of the concentration-response curve) was found to be 5 ng/mL in assay [1], 6 ng/mL in assay [2] and 5 ng/mL in assay [3].

B2: Anti-C1s antibody hz2-8 (H1L2 G80A) (antibody, V domains shown)
VH: QVQLVQSGAEVKKPGASVKVSCKASGFNIKEYYMHWVRQAPEQGLEWMGWIDPENADTIYAQKFQGRVTITADTSTNTAYMELSSLRSEDTAVYYCARSRLFFAYWGQGTLVTVSS
VL: DIQMTQSPKSLSASVGDRVTITCRASQDVRTALDWYQQKPGQSPKLLIYSASYRYSGVPSRFSGSGSGTDFTLTISSLQPEDFATYYCQQQYTTPYTFGQGTKLEIKR
notes: Humanized variant with G80A in HC CDR2 (already in the entry), human IgG1 / kappa
On to B2, for which the EC50 in assay [1] was determined as 6 ng/mL; in assay [2] it was 5 ng/mL; in assay [3], 5 ng/mL.

B3: Anti-C1s antibody hz2-8 (H1L2 G80A/T82A) (antibody, V domains shown)
VH: QVQLVQSGAEVKKPGASVKVSCKASGFNIKEYYMHWVRQAPEQGLEWMGWIDPENADAIYAQKFQGRVTITADTSTNTAYMELSSLRSEDTAVYYCARSRLFFAYWGQGTLVTVSS
VL: DIQMTQSPKSLSASVGDRVTITCRASQDVRTALDWYQQKPGQSPKLLIYSASYRYSGVPSRFSGSGSGTDFTLTISSLQPEDFATYYCQQQYTTPYTFGQGTKLEIKR
notes: Humanized variant with G80A and T82A in HC CDR2 (already in the entry), human IgG1 / kappa
As for B3, the EC50 in assay [1] is 9 ng/mL; in assay [2], 6 ng/mL; in assay [3], 5 ng/mL.
